Measurements reported in publication PMC12255305, “A transfer RNA methyltransferase with an unusual domain composition catalyzes 2′-O-methylation at position 6 in tRNA” (Nucleic Acids Research, 2025).

T1: TrmTS (TK1257 gene product) (Thermococcus kodakarensis KUW1, UniProt Q5JGM1 1-355)
T1 sequence: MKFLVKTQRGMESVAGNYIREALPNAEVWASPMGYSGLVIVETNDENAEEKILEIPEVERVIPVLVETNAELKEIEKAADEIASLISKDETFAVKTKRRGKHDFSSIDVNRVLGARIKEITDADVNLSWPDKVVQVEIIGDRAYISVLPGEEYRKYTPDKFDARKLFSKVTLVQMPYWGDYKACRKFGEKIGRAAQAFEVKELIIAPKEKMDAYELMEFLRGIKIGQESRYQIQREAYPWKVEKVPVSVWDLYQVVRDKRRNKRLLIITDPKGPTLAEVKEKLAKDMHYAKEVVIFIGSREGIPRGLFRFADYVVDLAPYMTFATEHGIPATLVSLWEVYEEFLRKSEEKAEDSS


Legend:
[1] = target: SPOUT catalytic domain of TrmTS (lacks NFLD and THUMP domain, residues 2-151) (Thermococcus kodakarensis) (UniProt Q5JGM1); assay: SEC; Superdex 200 10/300, room temperature; 150 ug truncated TrmTS heated at 50°C for 10 min, run in buffer C (50 mM Tris-HCl pH 8.0, 500 mM KCl, 300 mM ammonium sulfate); size standards 29-150 kDa
purified protein = substrate: C[S+](CC[C@H](N)C(=O)O)C[C@H]1O[C@@H](n2cnc3c(N)ncnc32)[C@H](O)[C@@H]1O; assay: purified protein; details: 35 μM T. kodakarensis tRNA-Trp transcript, 3 μM enzyme (not fully steady-state), 5 mM MgCl2, 300 mM KCl, pH 7.6, 75°C, mixture of unlabelled and 3H-labelled compound :1
[2] = target: the molecule itself; assay: SEC; Superdex 200 10/300, room temperature; 200 ug full-length TrmTS heated at 75°C for 10 min, then run in buffer SEC (50 mM sodium phosphate pH 8.0, 500 mM KCl, 6 mM 2-mercaptoethanol, 5% glycerol); sample buffer also held 0.1% Triton X-100; size standards 29-150 kDa
[3] = target: T1, TrmTS (TK1257 gene product); assay: competition (inhibition of methylation of wild-type tRNA-Trp transcript); SAM; competitor against wild-type tRNA-Trp transcript; Inhibition assay conditions (buffer, salt, pH, temperature) not given in the material; details: protein: recombinant; tags: none (untagged; native start and stop codons in pET30a); chain copies: 2; tRNA cloverleaf

Row | Molecule | Km (purified protein) | other results
1 | SPOUT catalytic domain of TrmTS (lacks NFLD and THUMP domain, residues 2-151) (from UniProt Q5JGM1 152-355) (domain or fragment) |  | stoichiometry N [1]: 2
2 | TrmTS (TK1257 gene product), full-length wild type (enzyme, Thermococcus kodakarensis, UniProt Q5JGM1 1-355, looked up, TK1257 gene product (TrmTS), tRNA 2'-O-methyltransferase of Thermococcus kodakarensis strain KUW1, 355 amino acids; NFLD, THUMP, linker and SPOUT domains; gene amplified from the ATG to the stop codons; Cloned between NdeI and BamHI of pET30a with its own stop codons; also called full-length TrmTS; wild-type TrmTS; source: E. coli BL21 (DE3) Rosetta 2, purified (75°C heat step, HiTrap Q HP, …)) MKFLVKTQRGMESVAGNYIREALPNAEVWASPMGYSGLVIVETNDENAEEKILEIPEVERVIPVLVETNAELKEIEKAADEIASLISKDETFAVKTKRRGKHDFSSIDVNRVLGARIKEITDADVNLSWPDKVVQVEIIGDRAYISVLPGEEYRKYTPDKFDARKLFSKVTLVQMPYWGDYKACRKFGEKIGRAAQAFEVKELIIAPKEKMDAYELMEFLRGIKIGQESRYQIQREAYPWKVEKVPVSVWDLYQVVRDKRRNKRLLIITDPKGPTLAEVKEKLAKDMHYAKEVVIFIGSREGIPRGLFRFADYVVDLAPYMTFATEHGIPATLVSLWEVYEEFLRKSEEKAEDSS | 23 µM | stoichiometry N [2]: 4
3 | TrmTS (TK1257 gene product) (Thermococcus kodakarensis KOD1; K155A) (protein) MKFLVKTQRGMESVAGNYIREALPNAEVWASPMGYSGLVIVETNDENAEEKILEIPEVERVIPVLVETNAELKEIEKAADEIASLISKDETFAVKTKRRGKHDFSSIDVNRVLGARIKEITDADVNLSWPDKVVQVEIIGDRAYISVLPGEEYRAYTPDKFDARKLFSKVTLVQMPYWGDYKACRKFGEKIGRAAQAFEVKELIIAPKEKMDAYELMEFLRGIKIGQESRYQIQREAYPWKVEKVPVSVWDLYQVVRDKRRNKRLLIITDPKGPTLAEVKEKLAKDMHYAKEVVIFIGSREGIPRGLFRFADYVVDLAPYMTFATEHGIPATLVSLWEVYEEFLRKSEEKAEDSS | 44 ± 7.6 µM | 
4 | TrmTS (TK1257 gene product) (Thermococcus kodakarensis KOD1; E301A) (protein) MKFLVKTQRGMESVAGNYIREALPNAEVWASPMGYSGLVIVETNDENAEEKILEIPEVERVIPVLVETNAELKEIEKAADEIASLISKDETFAVKTKRRGKHDFSSIDVNRVLGARIKEITDADVNLSWPDKVVQVEIIGDRAYISVLPGEEYRKYTPDKFDARKLFSKVTLVQMPYWGDYKACRKFGEKIGRAAQAFEVKELIIAPKEKMDAYELMEFLRGIKIGQESRYQIQREAYPWKVEKVPVSVWDLYQVVRDKRRNKRLLIITDPKGPTLAEVKEKLAKDMHYAKEVVIFIGSRAGIPRGLFRFADYVVDLAPYMTFATEHGIPATLVSLWEVYEEFLRKSEEKAEDSS | 21 ± 5.1 µM | 
5 | tRNA-Trp C6G-G67C transcript (G6-C67) (structured_RNA) RNA: GGGGGGGUGGUGUAGCCUGGUCCAUCAUCGCGGGCUCCAGACCCGCGGACCGGGGUUCAAAUCCCCGCCCCCCCACCA |  | IC50 [3]: ~30 µM
